Measurements from patent US20250092146A1 (ABILITA BIO, published 2025).
Numbering of substitutions follows the chain as printed. One block for each binder: values may come before it.

Key:
[1] = biological target: T1, Chimera A (hCCR8 with its N-terminus replaced by amino acids 1-22 of hCCR1) (human (hCCR8/hCCR1 chimera), UniProt P51685 18-355); assay: flow cytometry (MFI), HEK293T cells expressing Chimera A (hCCR8 with hCCR1 N-terminus)
T1 construct: Transiently transfected HEK293T cells
Source text: Determination of binding epitope location on hCCR8 was done for representative VHH-Fc antibodies by flow cytometry analysis using HEK293T cells expressing hCCR8 or two receptor chimeras comprised of combined sequence elements taken from hCCR8 (SEQ ID NO: 37) and hCCR1 (SEQ ID NO: 39). In the first, Chimera A based on hCCR8, the N-terminal region of the receptor (SEQ ID NO: 38) was replaced with a sequence encoding the N-terminal region of hCCR1 (SEQ ID NO: 40). In Chimera B based on hCCR1, the N-terminal region of the receptor was replaced by the sequence encoding the hCCR8 N-terminus (SEQ ID NO: 38).

human CCR8 (hCCR8) [2] = biological target: T2, human CCR8 (hCCR8) (human, UniProt P51685 1-355); assay: competition with 10 nM VHH-1-Fc, flow cytometry on HEK293-hCCR8 cells
T2 construct: On transfected HEK293/HEK293T cells, or naturally expressed on HuT-78 cells; also called C-C chemokine receptor type 8
Experimental: Binding studies were conducted on hCCR8 expressing cells for 60 minutes at 4° C., followed by two washes and then 30 minutes incubation at 4° C. with the Zenon R-Phycoerythrin Anti-human IgG secondary antibody (ThermoFisher Scientific, #Z-25455). Binding to cells was assessed by flow cytometry.

human CCR8 (hCCR8) [3] = biological target: T2, human CCR8 (hCCR8); assay: cell-based or functional assay
human CCR7 (hCCR7) = biological target: T3, human CCR7 (hCCR7) (human, UniProt P32248 25-378); assay: flow cytometry, HEK293 cells stably expressing hCCR7, anti-VHH detection
T3 construct: HEK293 cells stably expressing hCCR7
T3 sequence: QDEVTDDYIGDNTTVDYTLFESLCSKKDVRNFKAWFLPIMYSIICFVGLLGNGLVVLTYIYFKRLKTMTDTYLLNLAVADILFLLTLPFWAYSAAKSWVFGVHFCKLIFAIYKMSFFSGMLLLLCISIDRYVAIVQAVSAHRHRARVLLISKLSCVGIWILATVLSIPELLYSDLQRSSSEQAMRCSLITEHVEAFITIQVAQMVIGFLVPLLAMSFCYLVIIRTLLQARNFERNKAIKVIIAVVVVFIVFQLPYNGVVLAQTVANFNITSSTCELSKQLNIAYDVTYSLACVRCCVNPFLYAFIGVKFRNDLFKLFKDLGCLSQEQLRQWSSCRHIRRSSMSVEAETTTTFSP
Experimental: Recombinant cells expressing hCCR8 were resuspended to a final concentration of 1.0×10⁶ cells/ml in FACS buffer. […] Dilutions of purified VHHs were incubated with cells for 60 min. Individual samples were distributed into 96-well v-bottom plates and incubated for one hour at 4° C. […] Binding was determined in parallel on HEK293 cells stably expressing the closely related receptor hCCR7 (SEQ ID NO: 41), as control for binding specificity.

T2 sequence (P51685 whole entry): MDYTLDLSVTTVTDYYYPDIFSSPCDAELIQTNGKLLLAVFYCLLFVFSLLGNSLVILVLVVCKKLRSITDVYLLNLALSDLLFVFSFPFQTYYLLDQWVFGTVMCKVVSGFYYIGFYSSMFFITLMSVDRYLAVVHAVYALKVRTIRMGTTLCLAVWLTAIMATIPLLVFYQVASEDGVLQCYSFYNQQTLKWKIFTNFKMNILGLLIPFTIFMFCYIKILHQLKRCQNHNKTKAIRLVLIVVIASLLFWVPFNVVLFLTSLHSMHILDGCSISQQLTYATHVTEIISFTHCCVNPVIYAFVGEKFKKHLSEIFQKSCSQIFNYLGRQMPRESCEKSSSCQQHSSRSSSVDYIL
T1 sequence (P51685 other isoform, or with tags, fused parts or gaps mutant): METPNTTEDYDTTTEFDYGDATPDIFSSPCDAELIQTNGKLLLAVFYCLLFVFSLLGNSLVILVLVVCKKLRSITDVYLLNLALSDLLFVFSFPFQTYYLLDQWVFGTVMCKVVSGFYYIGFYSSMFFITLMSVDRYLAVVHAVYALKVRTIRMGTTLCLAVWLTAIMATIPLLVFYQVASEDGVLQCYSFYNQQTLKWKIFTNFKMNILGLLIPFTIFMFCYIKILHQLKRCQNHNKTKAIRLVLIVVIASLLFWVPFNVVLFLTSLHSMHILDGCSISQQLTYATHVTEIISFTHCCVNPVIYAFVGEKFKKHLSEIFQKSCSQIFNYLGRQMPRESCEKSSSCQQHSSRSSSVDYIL

binding result [1]: no binding
B1: BMS-4A19 (antibody, human IgG1, kappa)
heavy: not shown
light: DIVMTQTPLSLSVTPGQPASISCRSSQSLFHSSGNTYLHWYLQKPGQPPQLLIYKVSNRFSGVPDRFSGSGSGTDFTLKISRVEAEDVGVYYCSQSTHVPFTFGQGTKLEIKRTVAAPSVFIFPPSDEQLKSGTASVVCLLNNFYPREAKVQWKVDNALQSGNSQESVTEQDSKDSTYSLSSTLTLSKADYEKHKVYACEVTHQGLSSPVTKSFNRGEC
notes: Comparator from WO2021194942A1, made in HEK293 cells

binding result (human CCR8 (hCCR8) [2]): binds
B2: CCL1 (ligand, UniProt P22362 24-96, looked up)
chain: KSMQVPFSRCCFSFAEQEIPLRAILCYRNTSSICSNEGLIFKLKRGKEACALDTVGWVQRHRKMLRHCPSKRK
notes: also called hCCR8 agonist CCL1

EC50 (nM), ADCC reporter assay, mouse FcγRIV effector cells, HuT-78 target cells (human CCR8 (hCCR8) [3]): 0.015 nM
Fold Induction, ADCC reporter assay, mouse FcγRIV effector cells, HuT-78 target cells (human CCR8 (hCCR8) [3]): 12 fold
B3: VHH-1-mFc (Fc fusion)
chain: QVQLQESGGGLVQAGGSLRLSCVASGSTSSIRRIGWYRQAPGKQRELVARFSSGGGTNYADFVKGRFTISGDNAKNTMYLQMNSLKPEDTAVYYCSARRLLGTSRVDYWGQGTQVTVSSEPRGPTIKPCPPCKCPAPNLLGGPSVFIFPPKIKDVLMISLSPIVTCVVVDVSEDDPDVQISWFVNNVEVHTAQTQTHREDYNSTLRVVSALPIQHQDWMSGKEFKCKVNNKDLPAPIERTISKPKGSVRAPQVYVLPPPEEEMTKKQVTLTCMVTDFMPEDIYVEWTNNGKTELNYKNTEPVLDSDGSYFMYSKLRVEKKNWVERNSYSCSVVHEGLHNHHTTKSFSRTPGK

EC50 (nM), ADCC reporter assay, mouse FcγRIV effector cells, HuT-78 target cells (human CCR8 (hCCR8) [3]): 0.007 nM
Fold Induction, ADCC reporter assay, mouse FcγRIV effector cells, HuT-78 target cells (human CCR8 (hCCR8) [3]): 12 fold
B4: VHH-1.3-7-mFc (Fc fusion)
chain: EVQLVESGGGLVQPGGSLRLSCAVSGSTSSIRRIGWYRQAPGKGRELVAHFSSGGGTNYADSVKGRFTISGDKSKNTMYLQMNSLRAEDTAVYYCSARRLLGTSRVDYWGQGTTVTVSSEPRGPTIKPCPPCKCPAPNLLGGPSVFIFPPKIKDVLMISLSPIVTCVVVDVSEDDPDVQISWFVNNVEVHTAQTQTHREDYNSTLRVVSALPIQHQDWMSGKEFKCKVNNKDLPAPIERTISKPKGSVRAPQVYVLPPPEEEMTKKQVTLTCMVTDFMPEDIYVEWTNNGKTELNYKNTEPVLDSDGSYFMYSKLRVEKKNWVERNSYSCSVVHEGLHNHHTTKSFSRTPGK

EC50 (nM), ADCC reporter assay, mouse FcγRIV effector cells, HuT-78 target cells (human CCR8 (hCCR8) [3]): 0.024 nM
Fold Induction, ADCC reporter assay, mouse FcγRIV effector cells, HuT-78 target cells (human CCR8 (hCCR8) [3]): 11.3 fold
B5: VHH-1.3-19-mFc (Fc fusion)
chain: B4 chain with R33G, T114Q

EC50 (nM), ADCC reporter assay, mouse FcγRIV effector cells, HuT-78 target cells (human CCR8 (hCCR8) [3]): 0.042 nM
Fold Induction, ADCC reporter assay, mouse FcγRIV effector cells, HuT-78 target cells (human CCR8 (hCCR8) [3]): 11.4 fold
B6: VHH-1.3-21-mFc (Fc fusion)
chain: B4 chain with R33G, H50R, S52I, G71A, K73N, T114Q

EC50 (nM), ADCC reporter assay, mouse FcγRIV effector cells, HuT-78 target cells (human CCR8 (hCCR8) [3]): 0.345 nM
Fold Induction, ADCC reporter assay, mouse FcγRIV effector cells, HuT-78 target cells (human CCR8 (hCCR8) [3]): 9.74 fold
B7: VHH-1.3-20-mFc (Fc fusion)
chain: B4 chain with R33G, H50R, S52I, K73N, R99I, T114Q

binding result (human CCR7 (hCCR7)): no binding
B8: VHH-1 (VHH, not shown: small tags and cut ends)
VHH: QVQLQESGGGLVQAGGSLRLSCVASGSTSSIRRIGWYRQAPGKQRELVARFSSGGGTNYADFVKGRFTISGDNAKNTMYLQMNSLKPEDTAVYYCSARRLLGTSRVDYWGQGTQVTVSS
notes: Monovalent VHH purified from E. coli periplasm (PelB signal peptide)

binding result (human CCR7 (hCCR7)): no binding
B9: VHH-3 (VHH, not shown: small tags and cut ends)
VHH: B8 VHH with S96G
notes: as for B8
